Laboratory results as given in the nanobody polyreactivity screen of Harvey et al. (2022).

Assay: yeast display, Sf9 membrane polyspecificity reagent, FACS + sequencing; frameworks hold sequencing errors
Outline: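 Galactose-induced (36–48 hours) yeast carrying a synthetic nanobody display library were exposed to 10% biotinylated, detergent-solubilized Sf9 membrane reagent at 4 °C for 1 hour. FACS followed streptavidin microbead enrichment, using low and high (top ~1%) gates for expression (anti-HA) and reagent binding (streptavidin). Colony PCR, MiSeq 2 × 250 sequencing and CDR-length filtering followed. Labels for polyreactivity reflect the gate of origin.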

Sequence | polyreactivity (PSR sort gate)
QVQLVESGGGLVQAGGSLRLSCAASGFTFYLYTMGWYRQAPGKERELVATITSDGGTNYADSVKGRFTISRDNAKNTVYLQMNSLKPEDTAVYYCNAASRRGSRKQAKYDFWGQGTQVTVSS | low polyreactivity
QVQLVESGGGLVQAGGSLRLSCAASGFTFYLYTMGWYRQAPGKERELVATITSDGGTNYADSVKGRFTISRDNAKNTVYLQMNSLTPEDTAVYYCARDYLSPYAVDYWGQGTQVTVSS | low polyreactivity
QVQLVESGGGLVQAGGSLRLSCAASGFTFYLYTMGWYRQAPGKERELVATITSDGGTNYADSVKGRFTISRDNAKYTVYLQMNSLKPEDTAVYYCNAASRRGSRKQAKYDYWGQGTQVTVSS | low polyreactivity
QVQLVESGGGLVQAGGSLRLSCAASGFTFYNNAMGWYRQAPGKERELVAAISRSGGSTHYADSVKGRFTISRDTAKNTVYLQMNSLKPEDNAVYYCAKVGVLGYYTYYYWGQVTQVTVSS | low polyreactivity
QVQLVESGGGLVQAGGSLRLSCAASGFTFYNYAMGWFRQATGKERELVAASNSGGSTYYADSVKGRFTSSRDNATNTVYLQMNSLKPEDTAVDYFAARSYYQYRRYYSWGQGTQVTVSS | high polyreactivity
QVQLVESGGGLVQAGGSLRLSCAASGFTFYNYAMGWYRQAPGKERELVAAISYSGGSTYYADSVKGRFTISRDNAKNTVYLQMNSLKPEDTAVYYCAVVWWIQYVPGSYHAGYYWGQGTQVTVSS | high polyreactivity
QVQLVESGGGLVQAGGSLRLSCAASGFTFYQYAMGWYRQAPGKERELVAAISSSGTSTYYADSVKGRFTISRDNAKNTVYLQMNSLKPEDTAVYYCAKDKSPYGYATNQYRKYYYWGQGTQVTVSS | low polyreactivity
QVQLVESGGGLVQAGGSLRLSCAASGFTFYQYAMGWYRQAPGKERELVASISWSGGRTYYADSVKGRFTISRDNAKNTVYLQMNSLKPEDTAVYYCAARAYRIAGYDYWGQGTQVTVSS | high polyreactivity
QVQLVESGGGLVQAGGSLRLSCAASGFTFYRNAMGWYRQAPGKERELVAGISKRGGSTYYADSVKGRFTISRDNAKNTVYLQMNSLKPEDTAVYYCAAYKQYRFYRYDYWGQGTQVTVSS | high polyreactivity
QVQLVESGGGLVQAGGSLRLSCAASGFTFYRNAMGWYRQAPGKEREMVAAISWSGDSTYYADSVKGRFTISRDNAKNTVYLQMNSLNPEDTAVYYCAKERYFYYPWVTTYTSNYWGQGTQVTVSS | low polyreactivity
QVQLVESGGGLVQAGGSLRLSCAASGFTFYRNAMGWYRQPPGKERELVAAIDFSGSSTYYADSVKGRFTISRDNAKNTVYLQMNSLKPEDTAVYDCAAELGYAGYWYDYWGQGTQVTVSS | high polyreactivity
QVQLVESGGGLVQAGGSLRLSCAASGFTFYRYAMGWYRKAPGKERELVAAITRSGSRTYYADSVKGRFTISRDNAKNTVYLQMNSLKPEDTAVYYCKTDGGDHPTARYGYWGQGTQVTVSS | high polyreactivity
QVQLVESGGGLVQAGGSLRLSCAASGFTFYRYAMGWYRQAPGKERELVAAITRTGGSTYYADSVKGRFTISRDNAKNTVYLQMNSLKPEDTAVYYCAARVHGTGTLKYPNYYWGQGTQVTVSS | high polyreactivity
QVQLVESGGGLVQAGGSLRLSCAASGFTFYRYAMGWYRQAPGKERELVATISASGGSTYYADSVKGRFTISRDNAKNTVYLQMNSLKPEDTAVYYCAVRYKSWFGFNYWGQGTQVSVSS | high polyreactivity
QVQLVESGGGLVQAGGSLRLSCAASGFTFYRYTMGRYRQAPGKERELVAAITWSGGNTYYADSVKGRFTISRDNAKNTVYLQMNSLKPEDNAVYYCAAYKPYSKYNYWGQGTQVTVSS | high polyreactivity
QVQLVESGGGLVQAGGSLRLSCAASGFTFYRYVMGWYRKAPGKETELDAAISRRGGSTYYADSVKGRFTISRDNAKNTVYLQMNSLKPEDTAVYYCAADVISRYYVQYIGYYELHYDYWGQGTQVTVSS | high polyreactivity

Sequence | polyreactivity (PSR sort gate)
QVQLVESGGGLVQAGGSLRLSCAASGFTFYSYAMGWYRQAPGKEREFVAAGSTYYADSVKGRFTISRDNAKNTVYLQMNSLKPEDTAVYYCAADPWIYVQSYGYWGQGTQVTVSS | low polyreactivity
QVQLVESGGGLVQAGGSLRLSCAASGFTFYSYAMGWYRQAPGKERELVAAISWSGSRTYYADSVKGRFTISRDNAKNTVYLQMNSLKPEDTAVYYCTKYLPRHRYDFDYWGQGTQVTVSS | high polyreactivity
QVQLVESGGGLVQAGGSLRLSCAASGFTFYSYAMGWYRQAPGKERELVATISRNGGTTRYADSVKGRFTISRDNAKNTVYLQMNSLKPEDTAVYYCNAVYYAYSRHSYAMDYWGQGTQVTVSS | high polyreactivity
QVQLVESGGGLVQAGGSLRLSCAASGFTFYSYAMGWYRQAPGKERELVATITASGGSTYYADSVKGRFTISRDNAKNSVYLQMISLKPEDTAVYYCAAYHPHGFDYYRYYYWGQGTQVTVSS | high polyreactivity
QVQLVESGGGLVQAGGSLRLSCAASGFTFYSYAMGWYRQAPGTERELVAAISGGGGSTYYADSVKGRFTISRDNAKNTVYLQMNSLKPEDTAVYYCAKRPAYRGYGLGYYWGQGTQVTVSS | high polyreactivity
QVQLVESGGGLVQAGGSLRLSCAASGFTFYSYTMGWYRQAPGKERELVAAITRGGRTYYADSVKGRFTISRDNAKNTVYLQMNSLKPEDTAVYYCAARVGSWTQSFGYDYWGQGTQVTVSS | high polyreactivity
QVQLVESGGGLVQAGGSLRLSCAASGFTFYTNAMGWYRQAPGKERELVADITTSGGDTYYADSVKGRFTISRDNAKNTVYLQMNSLTPEDTAVYYCGEFWTYWGYGQYDYWGQCTQVTVSS | low polyreactivity
QVQLVESGGGLVQAGGSLRLSCAASGFTFYTYAMGWYRQAPGKERELVADISSGGSTNYADPVKGRFTISRDNAKNTVDLQMNCLKPEDTAVYYCSADYYFLDWYDYWGQGTQVTVSS | low polyreactivity
QVQLVESGGGLVQAGGSLRLSCAASGFTFYTYAMGWYRQEPGKEREMVATISGSGGDTNYADSVKGRFTISRDNAKNTGYLQMDSLKPEDTAVYYCAAETQSVWSGFYYWGQGTQVTVSS | low polyreactivity
QVQLVESGGGLVQAGGSLRLSCAASGFTFYTYAMGWYRQPPGKERELVAAISRRGGSTYYADSVKGRFTISRDNAKNTVYLQMNSLKPEDTAVYYFNAVADSYSGFDGYYYWGQGTQVTVSS | high polyreactivity
QVQLVESGGGLVQAGGSLRLSCAASGFTFYTYVMGWYIQAPGKERELVAAITSGVYTNYADSVKGRFTISRDNAKNTVDLQMKSLKPEDTAVYYCNKDVRQAYRWYDSWGQDTQVTVSS | low polyreactivity
QVQLVESGGGLVQAGGSLRLSCAASGFTFYTYVMGWYRQAPGKERELVAAITSGVSTNYADSVKGRFTISRDNAKNTVYLQMNSLKPEDTAVYYCAAGSDFQYGHDYWGQGTQVTVSS | low polyreactivity
QVQLVESGGGLVQAGGSLRLSCAASGFTFYVNAMGWYRQAPGKEREFVAAISASGASTRYADSVKGRFTISRDNAKNTVYLQMNSLKPEDTAVYYCAADAPAWILEAYGYWGQGTQVTVSS | low polyreactivity
QVQLVESGGGLVQAGGSLRLSCAASGFTFYVYAIGWYRKAPRKEREFVAAISKSGGRTYYADSVKGRFTISRDTAKNTVYLQMNSLKPEDTAVYYCGRYNRYQIIYPRFDYWGHGTQVTVSS | high polyreactivity
QVQLVESGGGLVQAGGSLRLSCAASGFTFYVYAMGWYRQARGQERELVATISRGGSTNYADSVKGRFTISRDNAKNTVYLQMNSLKPEDTAVYYCAARKYHYFPSRYGYWGQGTQVTVSS | high polyreactivity
